Experimental data published in patent US20260275304A1, “METHODS AND COMPOSITIONS FOR GLYPHOSATE TOLERANCE IN PLANTS” (Monsanto Technology LLC, priority 2023, published 2026).
Changes are numbered by the printed parent chain. Names and notes keep the numbering of the source.

B1: TIPS: Zea mays EPSPS double mutant T102I and P106S, SEQ ID NO:9; positive control (protein)
chain: AGAEEIVLQPIKEISGTVKLPGSKSLSNRILLLAALSEGTTVVDNLLNSEDVHYMLGALRTLGLSVEADKAAKRAVVVGCGGKFPVEDSKEEVQLFLGNAGIAMRSLTAAVTAAGGNATYVLDGVPRMRERPIGDLVVGLKQLGADVDCFLGTDCPPVRVNGIGGLPGGKVKLSGSISSQYLSALLMAAPLALGDVEIEIIDKLISIPYVEMTLRLMERFGVKAEHSDSWDRFYIKGGQKYKSPKNAYVEGDASSASYFLAGAAITGGTVTVEGCGTTSLQGDVKFAEVLEMMGAKVTWTETSVTVTGPPREPFGRKHLKAIDVNMNKMPDVAMTLAVVALFADGPTAIRDVASWRVKETERMVAIRTELTKLGASVEEGPDYCIITPPEKLNVTAIDTYDDHRMAMAFSLAACAEVPVAIRDPGCTRKTFPDYFDVLSTFVKN
modifications: Zea mays
notes: positive control
B2: TIPS-P126S-K296R: maize EPSPS variant, probably SEQ ID NO:11 (protein)
chain: B1 chain with P126S, K296R
modifications: Zea mays

What was measured:
transgenic maize plants [1] = assay: Maize transformation with glyphosate selection, plantlet recovery and quality checks; type: in vivo, Zea mays; settings: for Number of young plants passing quality control checks: in vivo; for Number of plantlets generated: under glyphosate selection, same amount of starting material
Text: Maize was used as a model system to test the functionality of the EPSPS variants because of detailed previous characterization of glyphosate tolerance in maize and a suitable transgenic plant generation protocol that relies on glyphosate. Plant transformation vectors were generated in which the native maize EPSPS sequence was used, which includes the native gene promoter elements, the native introns and exons and the native 3′ untranslated region and introduced mutations that corresponded to each of the selected amino acid changes. The native sequence was used to mimic as closely as possible how the selected EPSPS variants would perform if the variants were introduced directly in the genome without the help of strong expression elements. The following variants were selected for testing in a transgenic maize system: TIPS (as a control); TIPS-P126S-M217L-K296R; TIPS-P126S-K296R; T102I-P126S-K296R (where only the T102I change is present); P106S-P126S-K296R (where only the P106S change is present); and P126S-K296R (where neither of the TIPS changes are present).
Transgenic maize plants that expressed each of the six EPSPS variants were generated to determine if the variants conferred glyphosate tolerance to plants. The full DNA sequence encoding TIPS EPSPS (SEQ ID NO:1) was cloned from maize genomic DNA. In this sequence, the promoter and 5′ UTR are nucleotides 1:2556; the chloroplast transit peptide sequence is nucleotides 2557:2742; EXON 1 is nucleotides 2743:2856; INTRON 1 is nucleotides 2857:3384; EXON 2 is nucleotides 3385:3626; INTRON 2 is nucleotides 3627:3725; EXON 3 is nucleotides 3726:3879; INTRON 3 is nucleotides 3880:4152; EXON 4 is nucleotides 4153:4367; INTRON 4 is nucleotides 4368:4877; EXON 5 is nucleotides 4878:4995; INTRON 5 is nucleotides 4996:5155; EXON 6 is nucleotides 5156:5366; INTRON 6 is nucleotides 5367:5446; EXON 7 is nucleotides 5447:5508; INTRON 7 is nucleotides 5509:5617; EXON 8 is nucleotides 5618:5836; and the 3′ UTR is nucleotides 5837:6368. Mutations were then introduced into the EPSPS coding sequence in order to produce each of the six EPSPS variants to be tested. These mutated full genomic DNA sequences were then each cloned as a single expression cassette into plant transformation vectors.
Agrobacterium tumefaciens-mediated plant transformation was performed using methods known in the art. Glyphosate selection was used to select for transgenic events containing the transgene of interest and further screened for only those EPSPS variants that provided effective glyphosate tolerance in a plant cell. While all six EPSPS variants began the transformation process with the same amount of starting maize cellular material, there were differences in the number of small plantlets recovered that were capable of being transplanted to greenhouse soil media (Table 4). Transgenic events were further analyzed to determine transgene copy number. Healthy events with single copy of the transgene of interest were grown in the greenhouse soil media. Only three of the six EPSPS variants had more than one plant surviving. Up to twenty-five of these developing R0 plants were transplanted to larger pots and allowed to grow to maturity for seed collection in the greenhouse.

transgenic maize plants [2] = assay: Glyphosate spray test on R0 transgenic maize plants; type: in vivo, Zea mays; settings: for Percent of sprayed plants showing glyphosate injury: 0.75 lb ae/acre POST at V3-V4, seven days after application; for plants injured by the glyphosate spray: injury observed 1 week following treatment
Method: Two of the six EPSPS variants had developing plants greater than twenty-five. The extra developing R0 plants from these two variants were utilized in a glyphosate spray test to determine the tolerance provided by the EPSPS variants to a typical post glyphosate application to young plants. The R0 plants were sprayed with glyphosate applied postemergence (POST) at 0.75 lb ae (acid equivalent)/acre (0.84 kg ae/ha) at the V3-V4 stage. Treated plants were evaluated for injury seven days after glyphosate application.

Molecule	Number of young plants passing quality control checks (transgenic maize plants [1])	Number of plantlets generated (transgenic maize plants [1])	Percent of sprayed plants showing glyphosate injury (transgenic maize plants [2])	plants injured by the glyphosate spray (transgenic maize plants [2])
B1	35	192	30%	Three of the ten
B2	38	190	0%	none
